{"source": "patent US20240317885A1", "about": "(published 2024)", "binders": {"B1": {"name": "TIP1 (other)", "chain": "MSYIPGQPVTAVVQRVEIHKLRQGENLILGFSIGGGIDQDPSQNPFSEDKTDKGIYVTRVSEGGPAEIAGLQIGDKIMQVNGWDMTMVTHDQARKRLTKRSEEVVRLLVTRQSLQKAVQQSMLS"}, "B2": {"name": "human IgG1 v111 (antibody, V domains shown)", "VH": "QMQLVQSGAEVKKPGESLKISCKGSGYSFTSNWIGWVRQMPGKGLEWMGIIYPGDSDTRYSPSFQGQVTISADKSISTAYLQWSSLKASDTAMYYCARQQGHDAFDIWGQGTTVTVSS", "VL": "SYELTQPPSVSVSPGQTARITCSGDALPKRYAYWYRQKPGQAPVLVIQKDTERPSGIPERFSGSISGTTVTLTISGVQAEDEADYYCQSTDSSASYAVFGGGTKLTVL"}}, "key": {"v144": {"target": "v144", "assay": "Biacore"}, "v127": {"target": "v127", "assay": "Biacore"}, "[1]": {"target": "T1, Tax interacting protein-1 (TIP1), recombinant / purified protein (UniProt O14907 1-124)", "T1 chain": "B1 chain", "assay": "Biacore"}, "[2]": {"target": "T1, Tax interacting protein-1 (TIP1), …", "assay": "Biacore"}, "[3]": {"target": "T1, Tax interacting protein-1 (TIP1), …", "assay": "ELISA"}, "[4]": {"target": "T1, Tax interacting protein-1 (TIP1), …", "assay": "ELISA"}}, "data": [{"binder": "B1", "values": [{"measurement": "Kd", "setting": "v144", "result": 0.241, "unit": "nM"}, {"measurement": "Kd", "setting": "v127", "result": 0.13, "unit": "nM"}]}, {"binder": "B2", "values": [{"measurement": "Kd", "setting": "[1]", "result": 0.107, "unit": "nM"}, {"measurement": "Kd", "setting": "[2]", "result": 0.107, "unit": "nM"}, {"measurement": "EC50", "setting": "[3]", "result": 0.164, "unit": "nM"}, {"measurement": "Kd", "setting": "[4]", "result": 0.124, "unit": "nM"}]}]}
